Where a chain is given by its changes, count along the chain named. Numbers in names are those of the source.
T1: human IL-2Rβ (human, UniProt P14784 27-239)
T1 construct: Bought
T1 sequence (looked up): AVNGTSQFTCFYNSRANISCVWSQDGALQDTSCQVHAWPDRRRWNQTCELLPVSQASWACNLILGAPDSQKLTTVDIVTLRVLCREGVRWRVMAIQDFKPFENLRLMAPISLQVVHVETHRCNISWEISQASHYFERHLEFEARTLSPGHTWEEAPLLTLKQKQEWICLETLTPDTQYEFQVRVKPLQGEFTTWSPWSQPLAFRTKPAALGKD

T2: human gamma common chain expressed on CHO cells (human, UniProt P31785 23-369)
T2 construct: whole, on cells; Control protein; also called human IL-2R-γ common subunit; human gamma (γ) common chain
T2 sequence (looked up): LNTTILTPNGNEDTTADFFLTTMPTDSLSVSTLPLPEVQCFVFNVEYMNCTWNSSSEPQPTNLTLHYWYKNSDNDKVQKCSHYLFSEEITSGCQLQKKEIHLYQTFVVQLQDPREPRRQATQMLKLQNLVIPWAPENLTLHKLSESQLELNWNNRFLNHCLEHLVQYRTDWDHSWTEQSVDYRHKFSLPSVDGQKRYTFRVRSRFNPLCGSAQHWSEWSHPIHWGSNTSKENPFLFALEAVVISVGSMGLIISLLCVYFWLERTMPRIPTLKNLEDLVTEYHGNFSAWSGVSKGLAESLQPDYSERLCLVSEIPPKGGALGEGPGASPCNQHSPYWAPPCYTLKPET

B1: AbA (antibody, human IgG1, V domains shown)
VH: QVQLQESGPGLVKPSETLSLTCAVSGYSISSGYYWGWIRQPPGKGLEWIGSISHTGNTYYNPPLKSRVTISVDTSKNQFSLKLSSVTAADTAVYYCARGGGISRPEYWGQGTLVTVSS
VL: SSELTQDPAVSVALGQTVRITCQGDSLRTYYASWYQQKPGQAPVLVIYGKHKRPSGIPDRFSGSSSGNTASLTITGAQAEDEADYYCVARSVVGNPHVLFGGGTQLTVL
notes: Full-length human IgG1 / human lambda, transient, conditioned medium; Framework limits derived; also called VHP/VL2
B2: AbB (antibody, human IgG1, V domains shown)
VH: B1 VH
VL: B1 VL with A89S, S91A
notes: Full-length human IgG1 / human lambda, transient, conditioned medium; Framework limits derived; also called VHP/VL3
B3: AbC (antibody, human IgG1, V domains shown)
VH: B1 VH
VL: B1 VL with V88S, A89S, V92R, V93H
notes: Full-length human IgG1 / human lambda, transient, conditioned medium; Framework limits derived; also called VHP/VL11
B4: AbH (antibody, human IgG1, V domains shown)
VH: B1 VH
VL: B1 VL with S91A, V93R
notes: Full-length human IgG1 / human lambda, transient, conditioned medium; Framework limits derived; also called VHP/VL19
B5: AbI (antibody, human IgG1, V domains shown)
VH: B1 VH
VL: B1 VL with V88I, V92N, V93K
notes: Full-length human IgG1 / human lambda, transient, conditioned medium; Framework limits derived; also called VHP/VL24
B6: AbJ (antibody, human IgG1, V domains shown)
VH: B1 VH with G99F, G100M, I102F, S103G
VL: B1 VL with V88N, A89S, S91D, V92S, V93S
notes: Full-length human IgG1 / human lambda, transient, conditioned medium; Framework limits derived; also called VH3/VLP
B7: AbK (antibody, human IgG1, V domains shown)
VH: B1 VH with G99F, G100M, I102F, S103G
VL: B1 VL with A89S, S91A
notes: Full-length human IgG1 / human lambda, transient, conditioned medium; Framework limits derived; also called VH3/VL3
B8: AbM (antibody, human IgG1, V domains shown)
VH: B1 VH with G99F, G100F, I102F, S103G
VL: B1 VL with A89T, S91N, V92R, V93Y
notes: Full-length human IgG1 / human lambda, transient, conditioned medium; Framework limits derived; also called VH6/VL13
B9: AbN (antibody, human IgG1, V domains shown)
VH: B1 VH with G99F, G100F, I102F, S103G
VL: B1 VL with V88I, V92N, V93K
notes: Full-length human IgG1 / human lambda, transient, conditioned medium; Framework limits derived; also called VH6/VL24
B10: AbP (antibody, human IgG1, V domains shown)
VH: B1 VH
VL: B1 VL with A89S, V92A, V93K
notes: Human IgG1 triple-mutant (L234A, L235A, G237A); Framework limits derived; also called VHP/VL20; VHPTM/VL20
B11: AbV (antibody, human IgG1, V domains shown)
VH: B1 VH with G99F, G100M, I102F, S103G
VL: B1 VL
B12: AbW (antibody, human IgG1, V domains shown)
VH: B1 VH with G99F, G100M, I102F, S103G
VL: B1 VL with A89T, V93K

biological target: murine IL-21R expressed on cells (murine, UniProt Q9JHX3 20-529); assay: cell-based or functional assay
Sequence (Q9JHX3 20-529 limits assumed): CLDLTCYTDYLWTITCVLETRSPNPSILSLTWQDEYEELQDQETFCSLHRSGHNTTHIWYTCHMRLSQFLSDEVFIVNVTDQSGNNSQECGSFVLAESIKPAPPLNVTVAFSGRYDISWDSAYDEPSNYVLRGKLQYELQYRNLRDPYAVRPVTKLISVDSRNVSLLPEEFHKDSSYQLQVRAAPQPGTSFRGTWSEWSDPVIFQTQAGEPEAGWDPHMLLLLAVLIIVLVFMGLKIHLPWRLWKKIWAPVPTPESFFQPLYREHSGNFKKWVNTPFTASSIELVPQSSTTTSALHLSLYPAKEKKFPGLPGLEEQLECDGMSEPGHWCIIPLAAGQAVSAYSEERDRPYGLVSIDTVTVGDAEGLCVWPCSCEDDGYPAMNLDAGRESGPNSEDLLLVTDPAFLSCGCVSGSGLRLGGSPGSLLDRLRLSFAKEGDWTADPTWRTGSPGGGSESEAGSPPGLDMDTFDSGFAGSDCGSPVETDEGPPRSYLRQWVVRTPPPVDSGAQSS

Binder	Murine IL-21R-BaF3 Proliferation IC50 [nM]
B1	0.08
B2	0.421
B3	0.03
B4	0.327
B5	0.224
B6	0.4
B7	0.079
B8	0.125
B9	0.435
B10	0.03

biological target: T3, human IL-21R expressed on cells (human, UniProt Q9HBE5 20-538); assay: cell-based or functional assay
T3 sequence (Q9HBE5 20-538 limits assumed): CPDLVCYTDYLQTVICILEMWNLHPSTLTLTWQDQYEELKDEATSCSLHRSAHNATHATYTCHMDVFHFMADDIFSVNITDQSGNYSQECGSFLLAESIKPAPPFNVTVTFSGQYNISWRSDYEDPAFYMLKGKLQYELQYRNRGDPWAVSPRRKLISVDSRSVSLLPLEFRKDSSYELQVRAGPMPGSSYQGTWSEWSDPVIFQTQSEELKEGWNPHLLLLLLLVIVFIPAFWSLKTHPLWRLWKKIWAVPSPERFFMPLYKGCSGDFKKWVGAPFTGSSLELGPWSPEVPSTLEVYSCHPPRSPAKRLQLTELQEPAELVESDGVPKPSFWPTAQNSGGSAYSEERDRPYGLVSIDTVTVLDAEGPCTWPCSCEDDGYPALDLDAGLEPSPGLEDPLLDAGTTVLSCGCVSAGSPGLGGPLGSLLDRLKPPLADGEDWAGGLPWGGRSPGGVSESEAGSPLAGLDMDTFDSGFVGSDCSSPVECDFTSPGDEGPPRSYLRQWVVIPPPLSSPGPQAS

Binder	Human IL-21R-BaF3 Proliferation IC50 [nM]	Human IL-21R-TF1 Proliferation IC50 [nM]
B1	0.97	3.8
B2	1.14	3.34
B3	0.82	3.36
B4	0.94	3.64
B5	1	3.8
B6	0.65	4.6
B7	0.98	4
B8	1.08	4.22
B9	0.5	1.59
B10	0.75	3.48

biological target: T3, human IL-21R expressed on cells; assay: cell-based or functional assay; remark: another data set of the same source

Binder	Neutralization of T cell Proliferation IC50 (nM), human primary CD4+ T cells [nM]
B10	0.02

biological target: T4, human soluble IL-4R (human, UniProt P24394 26-231, limits assumed); assay: BIACORE: antibody captured on anti-human IgG, 50 nM analyte injected
T4 construct: soluble; also called human sIL-4R
Protocol: (§1) The specificity of binding of a subset of transiently expressed anti-IL-21R binding proteins (here antibodies) was tested on a BIACORE™ 2000 surface plasmon resonance instrument. Anti-human-IgG, anti-murine immunoglobulin antibodies, and murine IL-21R-H/F were immobilized onto a research-grade carboxymethyl-dextran chip (CM5) using standard amine coupling. The sensor chip surface was activated with EDC/NHS for 7 min at a flow rate of 20 μl/min. The first flow cell was used as reference surface to correct for bulk refractive index, matrix effects, and nonspecific binding. […] Remaining activated groups were blocked with 1.0 M ethanolamine (pH 8.0). The molecular weights of the anti-human IgG and the anti-murine IgG were both 150 kD, and the molecular weight of the IL-21R monomer was 27 kD.
(§2) Conditioned media containing anti-IL-21R antibodies and antibody controls (murine anti-human IL-2Rβ and murine anti-human IL-4R(R&D Systems, Minneapolis, Minn.); human anti-human IL-13 (Wyeth, Cambridge, Mass.)) were diluted in HBS/EP buffer supplemented with 0.2% bovine serum and injected onto all four flow cells of the BIACORE™ chip, capturing 500-700 (RU) of antibody on the species-appropriate capture antibody. Following a 5 sec washing period, 50 nM solutions of a positive control protein (murine IL-21R-H/F), two human proteins related to IL-21R (human IL-2Rβ and human sIL-4R(R&D Systems)), or an unrelated His/FLAG-tagged protein (human IL-13-H/F), were injected over the captured antibodies on the chip. The association and dissociation phases were monitored for 120 and 180 sec, respectively, followed by two 5 μl injections of glycine (pH 1.5) to regenerate a fully active capturing surface. All binding experiments were done at 25° C. in HBS/EP buffer. Blank and buffer effects were subtracted for each sensorgram using double referencing.

T4 sequence (P24394 26-231 limits assumed): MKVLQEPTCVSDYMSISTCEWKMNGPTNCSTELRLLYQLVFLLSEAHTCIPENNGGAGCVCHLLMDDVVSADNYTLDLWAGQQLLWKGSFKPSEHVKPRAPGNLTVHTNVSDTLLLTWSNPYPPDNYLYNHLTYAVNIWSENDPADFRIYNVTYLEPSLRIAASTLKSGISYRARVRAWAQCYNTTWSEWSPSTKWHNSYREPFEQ

Binder	binding result
B10	no binding (tested: 50 nM)

biological target: T1, human IL-2Rβ; assay: as above
Protocol: as §1, §2

Binder	binding result
B10	no binding (tested: 50 nM)

biological target: T5, human IL-13-His/FLAG (human, UniProt P35225 35-146, limits assumed); assay: as above
T5 construct: Unrelated His/FLAG-tagged control; also called human IL-13-H/F
Protocol: as §1, §2

T5 sequence (P35225 35-146 limits assumed): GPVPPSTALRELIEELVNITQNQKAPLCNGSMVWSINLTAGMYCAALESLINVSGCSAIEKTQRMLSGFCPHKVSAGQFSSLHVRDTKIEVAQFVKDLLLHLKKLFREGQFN

Binder	binding result
B10	no binding (tested: 50 nM)

biological target: rat IL-21R expressed on cells (rat); assay: cell-based or functional assay

Binder	IC50 (nM) experiment 1, rat T cell proliferation [nM]	IC50 (nM) experiment 2, rat T cell proliferation [nM]
B11	70.5	59.2
B12	159	94.7

biological target: T6, rat IL-21R expressed on cells (rat); assay: cell ELISA on transfected CHO cells, 13 nM IgG
T6 construct: whole, on cells; Transiently transfected CHO-PA-Dukx cells
Protocol: (§3) A subset of binding proteins was tested for binding to rat, cynomolgus monkey, human IL-21R, or human IL-2R-γ common subunit expressed transiently on the surfaces of CHO-PA-Dukx cells. Cells were transfected 48 hr prior to the assay. On the day of the assay, cells were washed gently 5× in PBS containing 0.9 mM CaCl₂ and 0.45 mM MgCl₂ (PBS/CaMg) on an automated plate washer (Titertek, Huntsville, Ala.), and blocked for 1 hr at RT in PBS/CaMg/5% nonfat dry milk. Conditioned media from transiently expressed anti-IL-21R IgGs were serially diluted in blocking buffer and added to the cells in the blocked plates for 1 hr at RT. Cells were washed 5× with PBS/CaMg and then incubated with horseradish peroxidase-conjugated anti-human IgG for 1 hr at RT. Cells were then washed 10× in PBS/CaMg and all of the wash buffer was removed. Cells were incubated with 100 μl TMB until the color reaction reached saturation, stopped with 100 μl of 0.18 M H₂SO₄, and read at A450 on a Perkin Elmer ENVISION™ plate reader.

Binder	A450 at 13 nM Ab in cell ELISA [A450]
B1	1.12
B2	1.09
B3	0.999
B4	1.1
B5	1.09
B6	1.26
B7	1.18
B8	0.78
B9	0.702
B10	1.03

biological target: T3, human IL-21R expressed on cells; assay: cell ELISA on transfected CHO cells, 13 nM IgG
Protocol: as §3

Binder	A450 at 13 nM Ab in cell ELISA [A450]
B1	1.2
B2	1.15
B3	1.22
B4	1.35
B5	1.24
B6	1.22
B7	1.36
B8	1.2
B9	1.21
B10	1.31

biological target: T7, cynomolgus monkey IL-21R expressed on CHO cells (cynomolgus monkey); assay: cell ELISA on transfected CHO cells, 13 nM IgG
T7 construct: whole, on cells
Protocol: as §3

Binder	A450 at 13 nM Ab in cell ELISA [A450]
B1	1.35
B2	1.33
B3	1.28
B4	1.32
B5	1.21
B6	1.27
B7	1.34
B8	1.45
B9	1.5
B10	1.31

biological target: T2, human gamma common chain expressed on …; assay: cell ELISA on transfected CHO cells, 13 nM IgG
Protocol: as §3

Binder	A450 at 13 nM Ab in cell ELISA [A450]
B1	0.111
B2	0.107
B3	0.137
B5	0.107
B6	0.126
B7	0.108
B9	0.136
B10	0.112

— US20090298167A1 (Pfizer, published 2009)
